# In US20190031762A1, “POSTERIOR OCULAR FIBROSIS INHIBITION BY ANTAGONIZING PLACENTAL GROWTH FACTOR” (THROMBOGENICS NV, priority 2016, published 2019):
# What was measured:
# [1] = target: T1, human PlGF (Homo sapiens, UniProt P49763); assay: Binding of antibody to human PlGF
# T1 sequence (P49763 19-131 limits assumed): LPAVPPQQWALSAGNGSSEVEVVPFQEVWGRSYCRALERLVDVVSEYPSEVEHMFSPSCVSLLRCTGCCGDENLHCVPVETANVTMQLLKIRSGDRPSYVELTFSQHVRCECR
# [2] = target: T2, murine PlGF (Mus musculus, UniProt P49764); assay: Binding of antibody to murine PlGF
# T2 sequence (P49764 19-158): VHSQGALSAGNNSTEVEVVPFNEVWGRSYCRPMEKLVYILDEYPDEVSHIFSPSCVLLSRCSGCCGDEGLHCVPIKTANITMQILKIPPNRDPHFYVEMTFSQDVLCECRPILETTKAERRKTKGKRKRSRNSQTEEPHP
# [3] = test system: mouse CNV model; assay: Posterior ocular collagen deposition (Col1a staining) in laser-induced CNV mouse model; format: in vivo; conditions: repeat experiment (FIG. 4), day 30, 3.1 μg/eye, compared to PBS
# Method: Mice (C57BL/6J, male, 8-10 weeks old) were anesthetized by intraperitoneal injection (135 μL) of a mixture of ketamine hydrochloride (Anesketin; […]) and medetomidine (Domitor; 1 mg/mL) and their pupils dilated with one eye drop (50 μL) Tropicamide (Tropicol™; 5 mg/mL; Thea, Research Papers Clermont-Ferrand, France). Three laser burns were placed in one eye with a green laser at the 9, 12, 3 o'clock positions around the optic disk using a slit lamp delivery system with a hand-held cover slide as a contact lens moisturized with Genteal Gel™ (Novartis, Vilvoorde, Belgium). Each spot was placed with a spot size of 100 μm, laser duration of a 50 milliseconds and a power of 320 mW. […] Finally, 300 μL atipamezole (Antisedan; 5 mg/mL) was injected intraperitoneally to reverse the effect of medetomidine and to reduce sedation time.
# At different time points after lasering, the compounds were administered intravitreally (IVT). The animal was anesthetized with a mixture of ketamine hydrochloride/medetomidine and the eye was treated with a drop of 0.4% oxybuprocaine (Unicaine; Thea Pharma). Intravitreal injections (1 μL) to one eye according to Tables 1 to 3 were performed by using an analytic science syringe (SGE Analytic Science) and glass capillaries with a diameter of 50-70 μm at the end, controlled by the UMP3I Microsyringe Injector and Micro4 Controller (all from World Precision Instruments Inc., Hertfordshire, UK). Finally, atipamezole (Antisedan) was injected intraperitoneally to reverse the effect of medetomidine and to reduce sedation time.
# To analyze the in vivo efficacy of the different compounds, the retina was removed from the dissected posterior segments. These posterior eye cups, which included retinal pigment epithelium (RPE), the choroid and the sclera were stored in phosphate buffered saline (PBS).
# To stain for the presence of collagen type 1 (Colla) protein in the laser spots at day 30 after laser, a rabbit anti-collagen antibody (Abcam, 1/270) was used overnight, diluted in Tris-buffered saline (TBS)-Triton 0.5% (v/v) at 4° C. The following day, the tissues were incubated for 2 hours with goat anti rabbit IgG Alexa Fluor 555 (Life Technologies; A-21428), diluted 1/100 in TBS-Triton 0.3% (v/v) at 4° C. The flat mounts of the posterior eye cups were mounted with Prolong Gold with 4′,6-diamidino-2-phenylindole (DAPI, Molecular Probes). Images were obtained using a microscope with a digital camera (Axiocam MrC5; Carl Zeiss, Oberkochen, Germany) at a magnification factor of 20. Morphometric analyses were performed using commercial software (Axiovision; Zeiss, Oberkochen, Germany). The density of collagen deposition was determined by calculating the Colla-positive area as a proportion of the total lesion.
# The mouse CNV model as described in Example 2.1 was used. At different time points after lasering, compounds were administered intraperitoneally (IP), or intravitreally (IVT), as indicated in Table 3.
molecule,measurement,setting,value
"16D3: murine anti-human PlGF-neutralizing antibody, CDRs SEQ ID NOs:1-6; hybridoma deposit LMBP 6399CB (antibody, V domains shown, humanized heavy chain amino acid sequence of neutralizing anti-PlGF antibody; humanized light chain amino acid sequence of neutralizing anti-PlGF antibody, hybridoma deposit LMBP 6399CB) VH: QVQLQQSGAELVKPGASVKISCKASGYTFTDYYINWVKLAPGQGLEWIGWIYPGSGNTKYNEKFKGKATLTIDTSSSTAYMQLSSLTSEDTAVYFCVRDSPFFDYWGQGTLLTVSS VL: DIVLTQSPDSLAVSLGERVTMNCKSSQSLLNSGMRKSFLAWYQQKPGQSPKLLIYWASTRESGVPDRFTGSGSGTDFTLTISSVQAEDVAVYYCKQSYHLFTFGSGTKLEIK","binding to human PlGF, in words",[1],binds
same,"affinity for murine PlGF relative to human PlGF, in words",[2],lower affinity
same,"effect on collagen deposition / fibrosis, in words",[3],significantly decreased collagen deposition
same,reduction in collagen deposition (Col1a),"[3]; IVT D0, 4, 10 and 20",34%
